Experiments:
[1] = SGF digest of 168 nutritive polypeptide library, intact protein by LC-MS/MS; type: in vitro ADME; conditions: 168 nutritive polypeptide library SGF digest, LC-MS/MS spectral counts
How it was run: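 Spectral-count ratios (10 min vs 0 min, peak gel fraction plus neighbours) give the percent of each protein left intact after SGF digestion of a pooled, IMAC-purified 168-member recombinant library. Samples were gel-fractionated, trypsinised in-gel and run on Orbitrap nanoLC-MS/MS, requiring two unique peptides at 1% FDR.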

[2] = Intact half-life during simulated gastric fluid (SGF) digestion; conditions: SGF pH 1.5, pepsin:polypeptide 1:20 w/w, 37° C.; intact protein
Experimental: In this experiment the nutritive polypeptide was exposed to a series of proteases that are active in the stomach (pepsin) and intestine (trypsin and chymotrypsin), and the presence of intact protein was measured over time. Specifically, the nutritive polypeptide was first treated at a concentration of 2 g/L with simulated gastric fluid (SGF) (0.03 M NaCl, titrated with HCl to pH 1.5 with a final pepsin:polypeptide ratio of 1:20 w/w) at 37° C. Time points were sampled from the reaction and quenched by addition of 0.2 M Na2CO3. […] Time points were sampled from the reaction and quenched by addition of Trypsin/Chymotrypsin Inhibitor (Sigma) solution until 240 min.
Time point samples were analyzed for intact protein by chip electrophoresis, polyacrylamide gel electrophoresis, or western blot. For chip electrophoresis (Labchip GX II), samples were analyzed using a HT Low MW Protein Express LabChip® Kit (following the manufacturer's protocol). A protein ladder was loaded every 12 samples for molecular weight determination (kDa) and quantification. For polyacrylamide gel electrophoresis, samples (1 μg) were separated on a NuPAGE® Novex® Bis-Tris Precast gel (Life Technologies) according to the manufacturer's protocol. The gel was stained using SimplyBlue™ SafeStain (Invitrogen) and imaged using a Chemidoc XRS+ (BioRad) or transferred onto nitrocellulose membranes using the iBlot® Dry Blotting System (Life Technologies) and iBlot® Western Detection Kit (Life Technologies) according to the manufacturer's protocol. Proteins were detected by blotting with Anti-His [C-term]-HRP antibody diluted 3:5000 in Blok™-PO Blocking Buffer using the SNAP I.d.® Protein Detection System (Millipore) according to the manufacturer's protocol. Blots were treated with Luminata Classico Western HRP Substrate (Millipore) according to the manufacturer's protocol and imaged using chemiluminescent detection on the Molecular Imager® Gel Doc™ XR+ System (Bio-Rad). Quantification of intact protein was determined by densitometry using ImageLab (BioRad). For all analysis methods the relative concentration of the polypeptide at each time point (if detected) was plotted overtime and fit to an exponential curve to calculate the intact half-life.
Specifically, the t=0 (enzyme-free control) and t=2 min samples from the SGF digest were analyzed for intact protein as described by chip electrophoresis, SDS-PAGE, western blot, and/or LC-MS/MS. Relative quantities of polypeptides at each time point were determined and the percentage of intact protein remaining at t=2 was determined. Intact half-life values determined using this method are reported as greater or less than 2 min to indicate more or less than 50% of the protein remained intact at t=2 min, respectively.

B1: SEQID-00641: protein of the 168 nutritive polypeptide library (protein, listed as Saccharomyces cerevisiae)
chain: MLPRSALARSLQLQRGVAARFYSEGSTGTPRGSGSEDSFVKRERATEDFFVRQREKEQLRHLKEQLEKQRKKIDSLENKIDSMTK
modifications: source: /note="strain ATCC 204508 / S288c"
notes: protein of the 168 nutritive polypeptide library
- % Intact Protein at 10 min [1]: 21.2%

B2: SEQID-00634: protein of the 168 nutritive polypeptide library (protein, listed as Saccharomyces cerevisiae)
chain: MPPKQQLSKAAKAAAALAGGKKSKKKWSKKSMKDRAQHAVILDQEKYDRILKEVPTYRYVSVSVLVDRLKIGGSLARIALRHLEKEGIIKPISKHSKQAIYTRATASE
modifications: source: /note="strain ATCC 204508 / S288c"
notes: as for B1
- % Intact Protein at 10 min [1]: 36.8%

B3: SEQID-00343: nutritive polypeptide (protein)
chain: MATLIAPSHHSRVEDAEALRNAFKGWGADDKAIIAILGHRNVHQRQEIRKAYEEIYQEDLIKRLESEISGDFERAMYRWMLQPADRDAVLVNVAIKNGTKDYHVIAEIACVLSAEELLAVRRAYHRRYKCSLEEDVAANTTGNLRQLLVGLVTSYRYEGDEINVKFSQTEANVLHESVKEKKGNSEEVIRILTTRSKTQLVATFNRYRDEHGISISKKLLDQTSDDFHKVLHTAIRCINDHKKYYEKVLRNAVKKFGTDEDGLSRVIVTRAEKDLKDIKELYYKRNSVHLEDEVSKETSGDYKKFLLTLLGK
modifications: Glycine max
- SGF Half-life (t½) [2]: 18 s

B4: SEQID-00642: protein of the 168 nutritive polypeptide library (protein, listed as Saccharomyces cerevisiae)
chain: MADQENSPLHTVGFDARFPQQNQTKHCWQSYVDYHKCVNMKGEDFAPCKVFWKTYNALCPLDWIEKWDDQREKGIFAGDINSD
modifications: source: /note="strain ATCC 204508 / S288c"
notes: as for B1
- % Intact Protein at 10 min [1]: 75%

B5: SEQID-00345: nutritive polypeptide (protein)
chain: MNTLDLQNQRILVTGGAGFLGKQVIDQLLKAGAKSENISVPRSHNCDLRNLEACQQAAKGQDIIIHLAAHVGGIGLNQVKPAELFYDNLMMGTQLIHSAYQAGVKKFVCVGTICAYPKFTPVPFQEDDLWNGYPEETNAPYGIAKKALLVQLQAYRQQYGFNGIYLLPVNLYGPEDNFNPKSSHVIPALVRKVYEAQQRGDKQLPVWGDGSPSREFLYSTDAARGIVMATQHYDEPDPVNLGTNSEVTIRDLVELICELMEFQGEIVWETDKPNGQPRRCLDTNRAKERFGFVAEVEFRQGLKNTIDWYRQNPDL
modifications: Arthrospira platensis NIES-39
- SGF Half-life (t½) [2]: 48 s

B6: SEQID-00638: protein of the 168 nutritive polypeptide library (protein)
chain: MKTNELVQRVAEKAKLPKKRVRAILDLAFSAISEEIESGQPVVVRGLGKFTLKEQPARTKTNPETGETTEVPARTVVNFRVIKPSKDKEEADS
modifications: Arthrospira platensis NIES-39
notes: as for B1
- % Intact Protein at 10 min [1]: 0%

B7: SEQID-00648: protein of the 168 nutritive polypeptide library (protein)
chain: MKRVHLPTDRETGKFRGFAFVEMNTEEEEIHAIEELDGAEWMGREIRVNLARPREDKKPSDRGGRKPRY
modifications: Arthrospira platensis C1
notes: as for B1
- % Intact Protein at 10 min [1]: 39.5%

B8: SEQID-00643: protein of the 168 nutritive polypeptide library (protein, listed as Linum usitatissimum)
chain: MVGCGRIGKLLLQRLKPFGCNLLYHDRLKMEPELETQIGAKFEEDVDAMLPKCDVVVINTPLTEKTKGMFDKDRILKMKKG
- % Intact Protein at 10 min [1]: 13.6%

B9: SEQID-00645: protein of the 168 nutritive polypeptide library (protein, listed as Saccharomyces cerevisiae)
chain: MAYTSHLSSKTGLHFGRLSLRSLTAYAPNLMLWGGASMLGLFVFTEGWPKFQDTLYKKIPLLGPTLEDHTPPEDKPN
modifications: source: /note="strain ATCC 204508 / S288c"
notes: as for B1
- % Intact Protein at 10 min [1]: 0%

B10: SEQID-00298 (AN): nutritive polypeptide naturally produced in Cow (protein, listed as Bos taurus)
chain: MGLSDGEWQLVLNAWGKVEADVAGHGQEVLIRLFTGHPETLEKFDKFKHLKTEAEMKASEDLKKHGNTVLTALGGILKKKGHHEAEVKHLAESHANKHKIPVKYLEFISDAIIHVLHAKHPSDFGADAQAAMSKALELFRNDMAAQYKVLGFHG
- SGF Half-life (t½) [2]: 18 s

B11: SEQID-00001: nutritive polypeptide (protein, listed as Gallus gallus)
chain: MGSIGAASMEFCFDVFKELKVHHANENIFYCPIAIMSALAMVYLGAKDSTRTQINKVVRFDKLPGFGDSIEAQCGTSVNVHSSLRDILNQITKPNDVYSFSLASRLYAEERYPILPEYLQCVKELYRGGLEPINFQTAADQARELINSWVESQTNGIIRNVLQPSSVDSQTAMVLVNAIVFKGLWEKAFKDEDTQAMPFRVTEQESKPVQMMYQIGLFRVASMASEKMKILELPFASGTMSMLVLLPDEVSGLEQLESIINFEKLTEWTSSNVMEERKIKVYLPRMKMEEKYNLTSVLMAMGITDVFSSSANLSGISSAESLKISQAVHAAHAEINEAGREVVGSAEAGVDAASVSEEFRADHPFLFCIKHIATNAVLFFGRCVSP
- SGF Half-life (t½) [2]: 300 s

B12: SEQID-00338 (BS): nutritive polypeptide (protein, listed as Saccharomyces cerevisiae)
chain: MSSSESIRMVLIGPPGAGKGTQAPNLQERFHAAHLATGDMLRSQIAKGTQLGLEAKKIMDQGGLVSDDIMVNMIKDELTNNPACKNGFILDGFPRTIPQAEKLDQMLKEQGTPLEKAIELKVDDELLVARITGRLIHPASGRSYHKIFNPPKEDMKDDVTGEALVQRSDDNADALKKRLAAYHAQTEPIVDFYKKTGIWAGVDASQPPATVWADILNKLGKD
modifications: source: /note="strain ATCC 204508 / S288c"
- SGF Half-life (t½) [2]: 12 s

B13: SEQID-00346: nutritive polypeptide (protein)
chain: MYYDADANLDLLAGKTIAIVGYGSQGHAHALNLKDSGMNVIVGLYPGSKSATKAKDAGLTVYPVDEAAKIADLIMILLPDEVQKTVYKNEIEPNLSEGKTLAFAHGFNIHFGQVVPPENVDVIMVAPKGPGHLVRRTYQEGQGVPCLFAVYQDASGQARDRAMAYAKGIGGTRGGILETTFREETETDLFGEQAVLCGGLSALIKAGFETLVEAGYQPELAYFECLHEVKLIVDLVVEGGLAQMRDSISNTAEYGDYTRGPRVITDATRAEMRKILKEIQTGQFAREFVLENQSGKAGFTAMRRQEAEHPIEEVGHDLRAMFSWLKKKA
modifications: Arthrospira platensis NIES-39
- SGF Half-life (t½) [2]: 12 s

B14: SEQID-00284: nutritive polypeptide (protein, listed as Arabidopsis thaliana)
chain: KLEHGVHVVSGTPGRVCDMIKRRSLRTRAIKLLILDESDEMLSRGFKDQIYDVYRYLPPDLQVCLVSATLPHEILEMTSKFMTEPVKILVKRDELTLEGIKQFFVAVEKEEWK
- SGF Half-life (t½) [2]: 60 s

B15: SEQID-00236: nutritive polypeptide (protein, listed as Bos taurus)
chain: ALQEAHQQTLDDLQAEEDKVNTLTKAKTKLEQQVDDLEGSLEQEKKLRMDLERAKRKLEGDLKLA
- SGF Half-life (t½) [2]: 600 s
